According to article PMC2808246, “Mycobacterial Nucleoside Diphosphate Kinase Blocks Phagosome Maturation in Murine Raw 264.7 Macrophages” (PLoS ONE, 2010):

B1: Mycobacterium tuberculosis nucleoside diphosphate kinase (Ndk), recombinant (enzyme)
chain: MTERTLVLIKPDGIERQLIGEIISRIERKGLTIAALQLRTVSAELASQHYAEHEGKPFFGSLLEFITSGPVVAAIVEGTRAIAAVRQLAGGTDPVQAAAPGTIRGDFALETQFNLVHGSDSAESAQREIALWFPGA
B2: Mycobacterium smegmatis nucleoside diphosphate kinase (Ndk), recombinant (enzyme)
chain: MTERTLVLIKPDGVKRQLVGEILSRIERKGLTLAALELKNVSDDLARQHYAEHADKPFFGSLLEFITSGPLVAAIVEGPRAVAAFRQIAGGTDPVEKAVPGTIRGDFALITQDNLVHGSDSPESAAREIALWFPGEATA

Key:
[1] = biological target: T1, Rab5a GTPase, recombinant, GTP-loaded (UniProt P20339 1-215); assay: cell-based or functional assay
T1 sequence: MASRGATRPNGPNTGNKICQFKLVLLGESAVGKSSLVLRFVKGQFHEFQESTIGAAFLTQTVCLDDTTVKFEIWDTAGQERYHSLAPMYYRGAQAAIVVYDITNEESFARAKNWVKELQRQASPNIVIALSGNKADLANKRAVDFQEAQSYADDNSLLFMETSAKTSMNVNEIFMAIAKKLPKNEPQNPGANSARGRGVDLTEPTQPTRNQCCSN

[2] = biological target: Rab7 GTPase, recombinant, GTP-loaded (UniProt P51149 1-207); assay: cell-based or functional assay
Sequence of Rab7 GTPase, recombinant, GTP-loaded (P51149 whole entry): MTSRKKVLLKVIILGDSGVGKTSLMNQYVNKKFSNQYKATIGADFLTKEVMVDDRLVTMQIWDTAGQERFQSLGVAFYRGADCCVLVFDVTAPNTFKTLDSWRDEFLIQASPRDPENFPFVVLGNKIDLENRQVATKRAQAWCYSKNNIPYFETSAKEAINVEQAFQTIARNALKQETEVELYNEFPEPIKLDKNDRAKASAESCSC

Binder | GAP activity: depletion of the gamma phosphate of [γ-32P]GTP bound to Rab5 spotted on nitrocellulose, after 2 h with 10 µg/ml Ndk, relative to untreated [1] [%] | GAP activity: depletion of the gamma phosphate of [γ-32P]GTP bound to Rab7 spotted on nitrocellulose, after 2 h with 10 µg/ml Ndk, relative to untreated [2] [%] | GAP activity: reduction of [γ-32P]GTP bound to Rab5 spotted on nitrocellulose, after 2 h with 10 µg/ml Ndk, relative to untreated [1] [%]
B1 | 95 | 90 | 
B2 |  |  | 35
